Among the data in doi:10.1101/2020.04.21.032086 are koff, kon and pKD values, retold here.

This assay concerns the target LgBiT-tagged human CXCR4 receptor (UniProt P61073). The experiment in a line: split reporter.

As a reminder, the koff is a measure of how fast the partners let go of each other. A high value points to fast dissociation. One may read the kon as a measure of how fast the partners come together. Low values mean slower complex formation, high ones faster complex formation. One may read the pKD as the negative decadic logarithm of the KD, by convention in mol/L. Low readings indicate a high KD, high ones a low KD. In turn, VSGWRLFKKIS [purified HiBiT-HaloTag fusion protein] yielded a koff of 0.00367 s⁻¹, a kon of 10000 M⁻¹ s⁻¹ and a negative logarithm of the KD (pKD) of 6.43.
